The record followed here is paper PMC3990635.

Sequences and labels used below:
B1: PAR1-Venus [mouse] / RGS2-Luciferase [not stated] (parent)
chain 1: MQSAMFLAVQHDCRPMDKSAGSGHKSEEKREKMKRTLLKDWKTRLSYFLQNSSTPGKPKTGKKSKQQAFIKPSPEEAQLWSEAFDELLASKYGLAAFRAFLKSEFCEENIEFWLACEDFKKTKSPQKLSSKARKIYTDFIEKEAPKEINIDFQTKTLIAQNIQEATSGCFTTAQKRVYSLMENNSYPRFLESEFYQDLCKKPQITTEPHAT
chain 2: SFFLRNPSENTFELVPLGDEEEEEKNESVLLEGRAVYLNISLPPHTPPPPFISEDASGYLTSPWLTLFMPSVYTIVFIVSLPLNVLAIAVFVLRMKVKKPAVVYMLHLAMADVLFVSVLPFKISYYFSGTDWQFGSGMCRFATAAFYGNMYASIMLMTVISIDRFLAVVYPIQSLSWRTLGRANFTCVVIWVMAIMGVVPLLLKEQTTRVPGLNITTCHDVLSENLMQGFYSYYFSAFSAIFFLVPLIVSTVCYTSIIRCLSSSAVANRSKKSRALFLSAAVFCIFIVCFGPTNVLLIVHYLFLSDSPGTEAAYFAYLLCVCVSSVSCCIDPLIYYYASSECQRHLYSILCCKESSDPNSCNSTGQLMPSKMDTCSSHLNNSIYKKLLA

The first assay covers variants of B1. As to the kind of experiment: BRET assay in live COS7 cells. To be noted: with RGS2-Luciferase; RGS2-Luc 35 ng; PAR1R205A-Ven 1.5 µg; no Gα11; no TFLLR; parent: 0.028; read off a plot. Background: BRET reads energy transfer from a luciferase to a nearby fluorophore.
Take chain 2 R164A: the response came to 0.032.

The same assay, now with this note: with RGS2-Luciferase; RGS2-Luc 35 ng; PAR1R205A-Ven 1.5 µg; no Gα11; with TFLLR; parent: 0.048; read off a plot.
With chain 2 R164A, the response came to 0.037.

The same assay, now with this note: with RGS2-Luciferase; RGS2-Luc 35 ng; PAR1R205A-Ven 1.5 µg; with 0.5 µg untagged Gα11; no TFLLR; parent: 0.062; read off a plot.
chain 2 R164A: the response came to 0.047.

The assay is the same for the next values; noted with them: with RGS2-Luciferase; RGS2-Luc 35 ng; PAR1R205A-Ven 1.5 µg; with 0.5 µg untagged Gα11; with TFLLR; parent: 0.086; read off a plot.
With chain 2 R164A, the response came to 0.048.
